Consider 1 substance from PMC5524996.

The target of this assay is IssA (iron-sulfur storage protein A), native thioferrate-bound nanoparticle form from Pyrococcus furiosus (Pyrococcus furiosus). The assay can be described thus: negative stain TEM; purified native IssA, untreated (20-300 nm) and after 3 M guanidinium chloride, 0.5 mM EDTA, 25 mM DTT (16-22 nm spheres); composition estimated from the volume of a 20 nm sphere, densities and the Fe:protein ratio.

Take “IssA (iron-sulfur storage protein A), native thioferrate-bound nanoparticle form from Pyrococcus furiosus (natural protein)”: the stoichiometry N is 170.

In general, stoichiometry N refers to a count of units in the complex or per binding partner.
